Laboratory results from patent US20130247232A1 (PRECISION BIOLOGICS, published 2013).
Ends that are not written are not given here.

T1: MUC5AC truncation construct 1-136 (human, UniProt P98088 3212-4055)
T1 sequence: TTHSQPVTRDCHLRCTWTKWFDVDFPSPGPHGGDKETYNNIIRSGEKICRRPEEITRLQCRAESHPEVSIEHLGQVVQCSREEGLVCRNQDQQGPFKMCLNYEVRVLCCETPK

T2: MUC5AC truncation construct 1-85 (human, UniProt P98088 1734-1794)
T2 chain: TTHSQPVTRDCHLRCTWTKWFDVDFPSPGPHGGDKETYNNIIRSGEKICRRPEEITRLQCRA

B1: NEO-101 antibody (chimeric) (antibody, V domains shown)
VH: QVQLKESGPDLVAPSQSLSITCTVSGFSLSKFGVNWVRQPPGKGLEWLGVIWGDGSTSYNSGLISRLSISKENSKSQVFLKLNSLQADDTATYYCVKPGGDYWGHGTSVTVSS
VL: QVVLTQSPVIMSASPGEKVTMTCSASSSISYMYWYQQKPGTSPKRWIYDTSKLASGVPARFSGSGSGTSYSLTISNMEAGDAATYYCHQRDSYPWTFGGGTNLEIK
notes: Chimeric, murine variable regions with human constant regions; Used unlabeled, biotinylated, FITC-labeled or coupled to Dynal beads depending on the assay; also called NPC-1C; NPC-1-C

Key:
[1] = target: B1; test: ELISA, biotinylated peptide on NEO-101 coated plate
Experimental: To solve the poor binding of peptides to 96 well plate, peptides were biotinylated using EZ-link micro NHS Biotinylation kit (Pierce Cat#21955), and labeling efficiency checked by dot blot (50%). […] The solution was blocked with 200 μl of 1% milk in TBS at RT for 20 min, Aliquots of 100 μl peptide-biotin (1 μg/ml) in 0.1% milk-TBS were added, and incubated at RT of 2 hr, followed by three washes with TBST. Streptavidin-HRP (100 μl of 1:2000 diluted in 1:10 diluted blocking buffer) was added, and the wells incubated at RT for 1 hr, followed by three washed. TMB was then added, and the wells were read at 450 nm. Positive controls for NPC-1C binding used 4B6-biotin. The results are shown in FIG. 11, which indicates biotinlyated peptides bind to NPC-1C coated plate.

[2] = target: T1, MUC5AC truncation construct 1-136; test: immunofluorescence of transfected 293T cells
Experimental: (§1) Cells were transiently transfected with 2 μg of MUC5AC constructs of Table 8 with LIPOFECTAMINE®. Cells were grown for about 72 hours, fixed with about 4% PFA in PBS, washed with PBS, permeabilized with about 0.2% […] in PBS and washed with PBS. […] Cells were washed with PBS and second anti human-FITC antibody (1:500) was added to all wells and to the second antibody control wells. Cells were washed and mounted on slides with DAPI hard mount. Cover slides were allowed to sit over night at about 4° C. Slides were visualized with a Nikon Eclipse Ti microscope with an Andor camera. At least 3 random fields were counted per transfection.

[3] = target: T2, MUC5AC truncation construct 1-85; test: immunofluorescence of transfected 293T cells
Experimental: as §1

[4] = target: B1; test: competition: phage premixed with NEO-101-coupled beads, then rosetting of CFPAC1 cells
Experimental: The M13 clones identified by the biopanning were also immunoassayed using magnetic beads. […] CFPAC1 cells (30 μl of 10⁶cells/ml) were added and incubated at 4° C. for 30 min. Rosetted cells were counted (>8 beads/cell).

Binder	Positive rosette cells (%) [4] [%]	other results
YSHSVHAIEDNWSPRGGGGS (also: biotinylated (position not given here), also called negative control) [synthetic peptide 4-1-3-C11 (control peptide)]		binding result [1]: no binding (tested: 1 µg/ml)
B1		binding result [2]: no binding (tested: about 2 µg/ml); binding result [3]: no binding (tested: about 2 µg/ml)
M13 phage clone 4-1-2-C5 (other, Whole phage particle displaying the peptide on pIII) WHTLPEKSLDENGGGSAETVESCLAKPHTENSFTNVWKDDKTLDRYANYEGCLWNATGVVVCTGDETQCYGTWVPIGLAIPENEGGGSEGGGSEGGGSEGGGTKPPEYGDTPIPGYTYINPLDGTYPPGTEQNPANPNPSLEESQPLNTFMFQNNRFRNRQGALTVYTGTVTQGTDPVKTYYQYTPVSSKAMYDAYWNGKFRDCAFHSGFNEDPFVCEYQGQSSDLPQPPVNAGGGSGGGSGGGSEGGGSEGGGSEGGGSEGGGSGGGSGSGDFDYEKMANANKGAMTENADENALQSDAKGKLDSVATDYGAAIDGFIGDVSGLANGNGATGDFAGSNSQMAQVGDGDNSPLMNNFRQYLPSLPQSVECRPFVFSAGKPYEFSIDCDKINLFRGVFAFLLYVATFMYVFSTFANILRNKES	0	
M13 phage clone 4-1-4-C12 (other, Whole phage particle displaying the peptide on pIII) SLPDDWFRYINYGGGSAETVESCLAKPHTENSFTNVWKDDKTLDRYANYEGCLWNATGVVVCTGDETQCYGTWVPIGLAIPENEGGGSEGGGSEGGGSEGGGTKPPEYGDTPIPGYTYINPLDGTYPPGTEQNPANPNPSLEESQPLNTFMFQNNRFRNRQGALTVYTGTVTQGTDPVKTYYQYTPVSSKAMYDAYWNGKFRDCAFHSGFNEDPFVCEYQGQSSDLPQPPVNAGGGSGGGSGGGSEGGGSEGGGSEGGGSEGGGSGGGSGSGDFDYEKMANANKGAMTENADENALQSDAKGKLDSVATDYGAAIDGFIGDVSGLANGNGATGDFAGSNSQMAQVGDGDNSPLMNNFRQYLPSLPQSVECRPFVFSAGKPYEFSIDCDKINLFRGVFAFLLYVATFMYVFSTFANILRNKES	0	
M13 phage clone 4-1-3-C9 (other, Whole phage particle displaying the peptide on pIII) FPEDYFRYTNQKGGGSAETVESCLAKPHTENSFTNVWKDDKTLDRYANYEGCLWNATGVVVCTGDETQCYGTWVPIGLAIPENEGGGSEGGGSEGGGSEGGGTKPPEYGDTPIPGYTYINPLDGTYPPGTEQNPANPNPSLEESQPLNTFMFQNNRFRNRQGALTVYTGTVTQGTDPVKTYYQYTPVSSKAMYDAYWNGKFRDCAFHSGFNEDPFVCEYQGQSSDLPQPPVNAGGGSGGGSGGGSEGGGSEGGGSEGGGSEGGGSGGGSGSGDFDYEKMANANKGAMTENADENALQSDAKGKLDSVATDYGAAIDGFIGDVSGLANGNGATGDFAGSNSQMAQVGDGDNSPLMNNFRQYLPSLPQSVECRPFVFSAGKPYEFSIDCDKINLFRGVFAFLLYVATFMYVFSTFANILRNKES	0	
M13 phage clone 4-1-3-C8 (other, Whole phage particle displaying the peptide on pIII) WHTLPESGEVTSGGGSAETVESCLAKPHTENSFTNVWKDDKTLDRYANYEGCLWNATGVVVCTGDETQCYGTWVPIGLAIPENEGGGSEGGGSEGGGSEGGGTKPPEYGDTPIPGYTYINPLDGTYPPGTEQNPANPNPSLEESQPLNTFMFQNNRFRNRQGALTVYTGTVTQGTDPVKTYYQYTPVSSKAMYDAYWNGKFRDCAFHSGFNEDPFVCEYQGQSSDLPQPPVNAGGGSGGGSGGGSEGGGSEGGGSEGGGSEGGGSGGGSGSGDFDYEKMANANKGAMTENADENALQSDAKGKLDSVATDYGAAIDGFIGDVSGLANGNGATGDFAGSNSQMAQVGDGDNSPLMNNFRQYLPSLPQSVECRPFVFSAGKPYEFSIDCDKINLFRGVFAFLLYVATFMYVFSTFANILRNKES	0	
M13 phage clone 4-1-3-C11 (other, Whole phage particle; its peptide served as the control peptide) VHAIEDNWSPRGGGGSAETVESCLAKPHTENSFTNVWKDDKTLDRYANYEGCLWNATGVVVCTGDETQCYGTWVPIGLAIPENEGGGSEGGGSEGGGSEGGGTKPPEYGDTPIPGYTYINPLDGTYPPGTEQNPANPNPSLEESQPLNTFMFQNNRFRNRQGALTVYTGTVTQGTDPVKTYYQYTPVSSKAMYDAYWNGKFRDCAFHSGFNEDPFVCEYQGQSSDLPQPPVNAGGGSGGGSGGGSEGGGSEGGGSEGGGSEGGGSGGGSGSGDFDYEKMANANKGAMTENADENALQSDAKGKLDSVATDYGAAIDGFIGDVSGLANGNGATGDFAGSNSQMAQVGDGDNSPLMNNFRQYLPSLPQSVECRPFVFSAGKPYEFSIDCDKINLFRGVFAFLLYVATFMYVFSTFANILRNKES	38	
